What was measured:
MG-63 cell line = test: Alizarin Red S (ARS) biomineralization assay in MG-63; assay type: cell-based, human; conditions: MEMα/10% FBS with βGP (2 mM) plus the ALP (1 U/mL), 7 days
Protocol: (§1) Biomineralization assays and Alizarin Red S staining: All human and mouse cell lines and human peripheral blood mononuclear cells (MNCs) were maintained in MEMα/10% FBS with penicillin/streptomycin and glutamine in a 37° C. humidified incubator with 5% CO2. […] The medium was replaced after 4 days. Alizarin Red S staining was performed at room temperature by removing the culture medium, washing the cells twice with 1×PBS (pH 7.4), fixing the cells in 10% neutral buffered formalin (Richard-Allan Scientific, Kalamazoo, Mich., USA) for 30 min, rinsing twice with Milli-Q water, staining with Alizarin Red S for 30 min, and destaining twice in Milli-Q water. A ZEISS inverted fluorescence/brightfield microscope equipped with an Infinity 3 digital camera and software system was used for imaging.

Saos-2 cell line = test: Alizarin Red S (ARS) biomineralization assay in Saos-2; assay type: cell-based, human; conditions: MEMα/10% FBS with βGP (2 mM) plus the ALP (1 U/mL), 7 days
Protocol: as §1

[1] = tested on: MG-63 and Saos-2 cell lines; test: Alizarin Red S biomineralization assay: phosphate source comparison, titration, ascorbic acid (FIG. 1A, 1C, 1E-G); assay type: cell-based, human; conditions: FIG. 1E-G
Protocol: as §1

[2] = tested on: human blood mononuclear cells (MNCs); test: Alizarin Red S biomineralization assay in human blood mononuclear cells; assay type: cell-based; conditions: MEMα/10% FBS with αGP alone or CIP alone (the other missing), 7 days
Protocol: as §1
Coating cell culture plate with Collagen Type I, rat tail for mineralization assays: To coat a 48-well plate with Collagen Type I at 5 μg/cm^2, the stock solution was diluted to 25 μg/mL in 17.5 mM of acetic acid and aliquoted […] into each well. After incubating at room temperature for one hour, the Collagen Type I solution was removed. Each well was rinsed with 1×PBS (pH 7.4) and air-dried at room temperature. Human blood MNCs were suspended in the conditioned media and distributed into each well (1×10^5 cell/well) prior to a 7-day incubation. […]

B1: ALPL: Recombinant human tissue-nonspecific alkaline phosphatase (R&D Systems) (protein, listed as Homo sapiens)
chain: MISPFLVLAIGTCLTNSLVPEKEKDPKYWRDQAQETLKYALELQKLNTNVAKNVIMFLGDGMGVSTVTAARILKGQLHHNPGEETRLEMDKFPFVALSKTYNTNAQVPDSAGTATAYLCGVKANEGTVGVSAATERSRCNTTQGNEVTSILRWAKDAGKSVGIVTTTRVNHATPSAAYAHSADRDWYSDNEMPPEALSQGCKDIAYQLMHNIRDIDVIMGGGRKYMYPKNKTDVEYESDEKARGTRLDGLDLVDTWKSFKPRYKHSHFIWNRTELLTLDPHNVDYLLGLFEPGDMQYELNRNNVTDPSLSEMVVVAIQILRKNPKGFFLLVEGGRIDHGHHEGKAKQALHEAVEMDRAIGQAGSLTSSEDTLTVVTADHSHVFTFGGYTPRGNSIFGLAPMLSDTDKKPFTAILYGNGPGYKVVGGERENVSMVDYAHNNYQAQSAVPLRHETHGGEDVAVFSKGPMAHLLHGVHEQNYVPHVMAYAACIGANLGHCAPASSAGSLAAGPLLLALALYPLSVLF
modifications: (1)..(524) Human tissue nonspecific alkaline phosphatase (ALPL)
- biomineralization (Alizarin Red S staining) (MG-63 cell line): biomineralization was observed
- biomineralization (Alizarin Red S staining) (Saos-2 cell line): biomineralization was observed

B2: CIP: calf intestinal alkaline phosphatase (protein, listed as Bos taurus)
chain: MQGACVLLLLGLHLQLSLGLVPVEEEDPAFWNRQAAQALDVAKKLQPIQTAAKNVILFLGDGMGVPTVTATRILKGQMNGKLGPETPLAMDQFPYVALSKTYNVDRQVPDSAGTATAYLCGVKGNYRTIGVSAAARYNQCKTTRGNEVTSVMNRAKKAGKSVGVVTTTRVQHASPAGAYAHTVNRNWYSDADLPADAQMNGCQDIAAQLVNNMDIDVILGGGRKYMFPVGTPDPEYPDDASVNGVRKRKQNLVQAWQAKHQGAQYVWNRTALLQAADDSSVTHLMGLFEPADMKYNVQQDHTKDPTLQEMTEVALRVVSRNPRGFYLFVEGGRIDHGHHDDKAYMALTEAGMFDNAIAKANELTSELDTLILVTADHSHVFSFGGYTLRGTSIFGLAPSKALDSKSYTSILYGNGPGYALGGGSRPDVNDSTSEDPSYQQQAAVPQASETHGGEDVAVFARGPQAHLVHGVEEETFVAHIMAFAGCVEPYTDCNLPAPTTATSIPDAAHLAASPPPLALLAGAMLLLLAPTLY
modifications: (1)..(533) Bovine intestine alkaline phosphatase (CIP)
- dose dependence of biomineralization (titration assays) [1]: depended on the doses
- biomineralization (Alizarin Red S staining) [2]: did not occur
- biomineralization (Alizarin Red S staining) (MG-63 cell line): mineralized
- biomineralization (Alizarin Red S staining) (Saos-2 cell line): mineralized

B3: SAP: shrimp hepatopancreas alkaline phosphatase (protein, listed as Pandalus borealis)
chain: MIGRTTFIALFVKVLTIWSFTKGEDCVWDNDVDYPEYPPLILDSSFQLVLPVLEGDQRITSVQSGSELILACPGREISALGSEDAQATCLGGKLVEVDGKEWNIVELGCTKMASETIHRNLGQCGDQDLGIYEVIGFDLPTTGHFYELIRVCFDPANETTIFSENIVHGASIAAKDIDPGRPSFKTSTGFFSVSMISVYSQRNQLELMKNLLGDDELAATIIDPSKQFYFAKGHMAPDADFVTVVEQDATYYYINALPQWQAFNNGNWKYLEYDTRDLAEKHGTDLTVYSGGWGVLELEDINGNPVEIYLGLAQDKKVVPAPALTWKVIYEKDTNRAAAIVGINNPHITTAPEPLCTDICSSLTWLDFDFGDLVHGYTYCCSVADLRAAIPNVPDLGDVDILDE
modifications: (1)..(404) Shrimp alkaline phosphatase (rSAP)
- biomineralization (Alizarin Red S staining) (MG-63 cell line): mineralized
- biomineralization (Alizarin Red S staining) (Saos-2 cell line): mineralized

— patent US20230220346A1, “BIOLOGICALLY SYNTHESIZED HYDROXYAPATITE FOR BONE REGENERATION AND TISSUE ENGINEERING” (BIOVENTURES, LLC, priority 2019, published 2023)
